The binders below were run against T1, APBA3_1, O96018 (assay: holdup assay). Settings: plain residues with an end cap or a label only (N-terminal biotin on a linker: ado-ado).
T1 sequence (O96018 389-490, limits assumed, looked up): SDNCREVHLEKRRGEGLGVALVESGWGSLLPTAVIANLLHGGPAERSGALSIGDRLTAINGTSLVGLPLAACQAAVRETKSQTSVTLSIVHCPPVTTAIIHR
Parameters: key: below the threshold = too weak to quantify, mostly under pKd 3.1 to 4
With QQGLLPHSSC [TYRO3, Q06418] the pKd was “below the threshold”.

Each binder was assayed against T2, DFNB31_1, Q9P202 (assay: holdup assay). Settings: plain residues with an end cap or a label only (N-terminal biotin on a linker: ado-ado).
T2 sequence (Q9P202 135-233, limits assumed, looked up): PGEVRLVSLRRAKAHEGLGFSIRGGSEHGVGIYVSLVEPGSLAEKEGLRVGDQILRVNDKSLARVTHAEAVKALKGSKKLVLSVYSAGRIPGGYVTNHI
Parameters: key: below the threshold = too weak to quantify, mostly under pKd 3.1 to 4
With QQGLLPHSSC [TYRO3, Q06418] the pKd was “below the threshold”.

What follows are binders tested against DLG4_3, P78352 (assay: holdup assay). Settings: plain residues with an end cap or a label only (N-terminal biotin on a linker: ado-ado).
Sequence of DLG4_3, P78352 (P78352 306-403): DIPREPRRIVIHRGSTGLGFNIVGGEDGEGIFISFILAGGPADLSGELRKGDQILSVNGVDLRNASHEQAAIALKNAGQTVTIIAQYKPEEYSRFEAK
Parameters: key: below the threshold = too weak to quantify, mostly under pKd 3.1 to 4
With QQGLLPHSSC [TYRO3, Q06418] the pKd was “below the threshold”.

These binders were tested against DLG5_1, Q8TDM6 (assay: holdup assay). Settings: plain residues with an end cap or a label only (N-terminal biotin on a linker: ado-ado).
Sequence of DLG5_1, Q8TDM6 (Q8TDM6 617-713): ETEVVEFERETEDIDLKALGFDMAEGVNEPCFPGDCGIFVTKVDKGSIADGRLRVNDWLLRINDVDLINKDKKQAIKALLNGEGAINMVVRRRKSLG
Parameters: key: below the threshold = too weak to quantify, mostly under pKd 3.1 to 4
For QQGLLPHSSC [TYRO3, Q06418], the pKd was “below the threshold”.

Each binder was assayed against FRMPD4, Q14CM0 (assay: holdup assay). Settings: plain residues with an end cap or a label only (N-terminal biotin on a linker: ado-ado).
Sequence of FRMPD4, Q14CM0 (Q14CM0 67-160): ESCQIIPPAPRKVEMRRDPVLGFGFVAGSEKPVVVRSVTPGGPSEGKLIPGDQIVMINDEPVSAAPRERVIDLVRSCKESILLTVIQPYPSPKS
Parameters: key: below the threshold = too weak to quantify, mostly under pKd 3.1 to 4
For QQGLLPHSSC [TYRO3, Q06418], the pKd was “below the threshold”.

Each binder was assayed against GIPC2, Q8TF65 (assay: holdup assay). Settings: plain residues with an end cap or a label only (N-terminal biotin on a linker: ado-ado).
Sequence of GIPC2, Q8TF65 (Q8TF65 112-203): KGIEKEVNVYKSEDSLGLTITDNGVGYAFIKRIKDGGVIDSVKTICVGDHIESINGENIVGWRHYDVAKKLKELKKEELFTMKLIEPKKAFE
Parameters: key: below the threshold = too weak to quantify, mostly under pKd 3.1 to 4
QQGLLPHSSC [TYRO3, Q06418] gave a pKd of 3.53.

These binders were tested against GORASP1, Q9BQQ3 (assay: holdup assay). Settings: plain residues with an end cap or a label only (N-terminal biotin on a linker: ado-ado).
Sequence of GORASP1, Q9BQQ3 (Q9BQQ3 1-208): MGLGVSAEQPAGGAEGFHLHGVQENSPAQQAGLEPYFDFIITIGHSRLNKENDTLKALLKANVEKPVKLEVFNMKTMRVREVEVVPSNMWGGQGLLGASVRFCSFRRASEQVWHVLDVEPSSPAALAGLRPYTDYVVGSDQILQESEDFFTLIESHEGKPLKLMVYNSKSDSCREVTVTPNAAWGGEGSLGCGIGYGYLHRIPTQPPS
Parameters: key: below the threshold = too weak to quantify, mostly under pKd 3.1 to 4
With QQGLLPHSSC [TYRO3, Q06418] the pKd was “below the threshold”.

These binders were tested against T3, GRIP1_3, Q9Y3R0 (assay: holdup assay). Settings: plain residues with an end cap or a label only (N-terminal biotin on a linker: ado-ado).
T3 sequence (Q9Y3R0 247-346, limits assumed, looked up): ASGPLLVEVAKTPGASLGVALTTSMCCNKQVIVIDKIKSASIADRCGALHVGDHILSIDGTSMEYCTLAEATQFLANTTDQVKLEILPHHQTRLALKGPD
Parameters: key: below the threshold = too weak to quantify, mostly under pKd 3.1 to 4
In the case of QQGLLPHSSC [TYRO3, Q06418], the pKd is reported as “below the threshold”.

Each binder was assayed against T4, GRIP1_5, Q9Y3R0 (assay: holdup assay). Settings: plain residues with an end cap or a label only (N-terminal biotin on a linker: ado-ado).
T4 sequence (Q9Y3R0 568-668, limits assumed, looked up): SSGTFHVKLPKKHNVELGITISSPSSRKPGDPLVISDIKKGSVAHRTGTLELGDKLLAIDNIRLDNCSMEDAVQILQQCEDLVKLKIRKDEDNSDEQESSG
Parameters: key: below the threshold = too weak to quantify, mostly under pKd 3.1 to 4
With QQGLLPHSSC [TYRO3, Q06418] the pKd was “below the threshold”.

Each binder was assayed against GRIP2_4, Q9C0E4 (assay: holdup assay). Settings: plain residues with an end cap or a label only (N-terminal biotin on a linker: ado-ado).
Sequence of GRIP2_4, Q9C0E4 (Q9C0E4 446-548): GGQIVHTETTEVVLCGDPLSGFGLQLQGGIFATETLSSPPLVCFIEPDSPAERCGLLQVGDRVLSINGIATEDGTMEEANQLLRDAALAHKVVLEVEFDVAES
Parameters: key: below the threshold = too weak to quantify, mostly under pKd 3.1 to 4
For QQGLLPHSSC [TYRO3, Q06418], the pKd was “below the threshold”.

The binders below were run against GRIP2_7, Q9C0E4 (assay: holdup assay). Settings: plain residues with an end cap or a label only (N-terminal biotin on a linker: ado-ado).
Sequence of GRIP2_7, Q9C0E4 (Q9C0E4 934-1023): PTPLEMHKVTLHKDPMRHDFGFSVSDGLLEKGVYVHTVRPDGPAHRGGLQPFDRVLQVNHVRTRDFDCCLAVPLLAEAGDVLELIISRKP
Parameters: key: below the threshold = too weak to quantify, mostly under pKd 3.1 to 4
QQGLLPHSSC [TYRO3, Q06418] was tested, and the pKd was “below the threshold”.

What follows are binders tested against IL16_4, Q14005 (assay: holdup assay). Settings: plain residues with an end cap or a label only (N-terminal biotin on a linker: ado-ado).
Sequence of IL16_4, Q14005 (Q14005 1229-1329): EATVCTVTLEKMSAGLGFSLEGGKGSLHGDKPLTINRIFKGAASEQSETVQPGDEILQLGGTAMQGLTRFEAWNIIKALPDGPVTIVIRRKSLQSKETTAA
Parameters: key: below the threshold = too weak to quantify, mostly under pKd 3.1 to 4
QQGLLPHSSC [TYRO3, Q06418] was tested, and the pKd was “below the threshold”.

What follows are binders tested against Inadl_1, Q8NI35 (assay: holdup assay). Settings: plain residues with an end cap or a label only (N-terminal biotin on a linker: ado-ado).
Sequence of Inadl_1, Q8NI35 (Q8NI35 113-229): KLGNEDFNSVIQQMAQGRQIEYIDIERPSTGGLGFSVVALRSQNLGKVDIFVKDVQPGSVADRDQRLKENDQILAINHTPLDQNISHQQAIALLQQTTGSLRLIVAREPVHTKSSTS
Parameters: key: below the threshold = too weak to quantify, mostly under pKd 3.1 to 4
In the case of QQGLLPHSSC [TYRO3, Q06418], the pKd is reported as “below the threshold”.

Each binder was assayed against Inadl_6, Q8NI35 (assay: holdup assay). Settings: plain residues with an end cap or a label only (N-terminal biotin on a linker: ado-ado).
Sequence of Inadl_6, Q8NI35 (Q8NI35 1058-1167): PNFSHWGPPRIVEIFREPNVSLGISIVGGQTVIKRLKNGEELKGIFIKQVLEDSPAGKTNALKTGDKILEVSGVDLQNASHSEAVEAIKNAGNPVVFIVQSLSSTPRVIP
Parameters: key: below the threshold = too weak to quantify, mostly under pKd 3.1 to 4
In the case of QQGLLPHSSC [TYRO3, Q06418], the pKd is reported as “below the threshold”.

What follows are binders tested against LNX1_1, Q8TBB1 (assay: holdup assay). Settings: plain residues with an end cap or a label only (N-terminal biotin on a linker: ado-ado).
Sequence of LNX1_1, Q8TBB1 (Q8TBB1 261-371): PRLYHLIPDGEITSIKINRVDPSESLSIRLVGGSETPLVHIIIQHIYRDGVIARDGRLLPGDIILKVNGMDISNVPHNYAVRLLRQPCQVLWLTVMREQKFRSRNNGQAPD
Parameters: key: below the threshold = too weak to quantify, mostly under pKd 3.1 to 4
With QQGLLPHSSC [TYRO3, Q06418] the pKd was “below the threshold”.

These binders were tested against LNX1_2, Q8TBB1 (assay: holdup assay). Settings: plain residues with an end cap or a label only (N-terminal biotin on a linker: ado-ado).
Sequence of LNX1_2, Q8TBB1 (Q8TBB1 371-470): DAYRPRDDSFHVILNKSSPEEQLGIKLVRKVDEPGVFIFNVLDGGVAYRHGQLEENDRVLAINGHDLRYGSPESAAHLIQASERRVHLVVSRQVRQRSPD
Parameters: key: below the threshold = too weak to quantify, mostly under pKd 3.1 to 4
For QQGLLPHSSC [TYRO3, Q06418], the pKd was “below the threshold”.

The binders below were run against LNX1_3, Q8TBB1 (assay: holdup assay). Settings: plain residues with an end cap or a label only (N-terminal biotin on a linker: ado-ado).
Sequence of LNX1_3, Q8TBB1 (Q8TBB1 500-596): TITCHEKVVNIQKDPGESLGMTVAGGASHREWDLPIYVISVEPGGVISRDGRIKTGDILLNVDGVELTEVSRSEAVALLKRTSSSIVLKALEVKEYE
Parameters: key: below the threshold = too weak to quantify, mostly under pKd 3.1 to 4
With QQGLLPHSSC [TYRO3, Q06418] the pKd was “below the threshold”.

The binders below were run against MAGI1_1, Q96QZ7 (assay: holdup assay). Settings: plain residues with an end cap or a label only (N-terminal biotin on a linker: ado-ado).
Sequence of MAGI1_1, Q96QZ7 (Q96QZ7 1-106): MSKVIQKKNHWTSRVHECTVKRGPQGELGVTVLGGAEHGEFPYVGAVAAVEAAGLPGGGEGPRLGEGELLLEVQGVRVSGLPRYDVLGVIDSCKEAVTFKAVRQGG
Parameters: key: below the threshold = too weak to quantify, mostly under pKd 3.1 to 4
With QQGLLPHSSC [TYRO3, Q06418] the pKd was “below the threshold”.

What follows are binders tested against MAGI1_2, Q96QZ7 (assay: holdup assay). Settings: plain residues with an end cap or a label only (N-terminal biotin on a linker: ado-ado).
Sequence of MAGI1_2, Q96QZ7 (Q96QZ7 456-580): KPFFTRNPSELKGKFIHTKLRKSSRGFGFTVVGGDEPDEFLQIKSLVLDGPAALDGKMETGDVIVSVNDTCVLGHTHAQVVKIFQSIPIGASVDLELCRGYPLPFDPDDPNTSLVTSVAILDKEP
Parameters: key: below the threshold = too weak to quantify, mostly under pKd 3.1 to 4
With QQGLLPHSSC [TYRO3, Q06418] the pKd was “below the threshold”.

The binders below were run against MAGI2_5, Q86UL8 (assay: holdup assay). Settings: plain residues with an end cap or a label only (N-terminal biotin on a linker: ado-ado).
Sequence of MAGI2_5, Q86UL8 (Q86UL8 915-1017): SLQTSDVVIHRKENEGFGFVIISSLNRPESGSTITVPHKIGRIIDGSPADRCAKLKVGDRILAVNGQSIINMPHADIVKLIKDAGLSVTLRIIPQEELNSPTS
Parameters: key: below the threshold = too weak to quantify, mostly under pKd 3.1 to 4
For QQGLLPHSSC [TYRO3, Q06418], the pKd was “below the threshold”.

The binders below were run against MAGI2_6, Q86UL8 (assay: holdup assay). Settings: plain residues with an end cap or a label only (N-terminal biotin on a linker: ado-ado).
Sequence of MAGI2_6, Q86UL8 (Q86UL8 1141-1229): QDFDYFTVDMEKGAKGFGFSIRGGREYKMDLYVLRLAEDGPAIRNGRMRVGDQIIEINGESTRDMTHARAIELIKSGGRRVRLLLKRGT
Parameters: key: below the threshold = too weak to quantify, mostly under pKd 3.1 to 4
With QQGLLPHSSC [TYRO3, Q06418] the pKd was “below the threshold”.

Each binder was assayed against T5, PDZRN3_1, Q9UPQ7 (assay: holdup assay). Settings: plain residues with an end cap or a label only (N-terminal biotin on a linker: ado-ado).
T5 sequence (Q9UPQ7 244-349, limits assumed, looked up): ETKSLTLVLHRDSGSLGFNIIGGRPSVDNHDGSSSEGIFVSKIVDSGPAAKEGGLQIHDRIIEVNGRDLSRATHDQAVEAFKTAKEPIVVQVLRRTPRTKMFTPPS
Parameters: key: below the threshold = too weak to quantify, mostly under pKd 3.1 to 4
With QQGLLPHSSC [TYRO3, Q06418] the pKd was “below the threshold”.

These binders were tested against PDZRN4_1, Q6ZMN7 (assay: holdup assay). Settings: plain residues with an end cap or a label only (N-terminal biotin on a linker: ado-ado).
Sequence of PDZRN4_1, Q6ZMN7 (Q6ZMN7 213-318): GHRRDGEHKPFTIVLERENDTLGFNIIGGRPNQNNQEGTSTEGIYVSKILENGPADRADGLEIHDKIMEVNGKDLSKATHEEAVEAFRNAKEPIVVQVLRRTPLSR
Parameters: key: below the threshold = too weak to quantify, mostly under pKd 3.1 to 4
In the case of QQGLLPHSSC [TYRO3, Q06418], the pKd is reported as “below the threshold”.

These binders were tested against PICK1, Q9NRD5 (assay: holdup assay). Settings: plain residues with an end cap or a label only (N-terminal biotin on a linker: ado-ado).
Sequence of PICK1, Q9NRD5 (Q9NRD5 17-115): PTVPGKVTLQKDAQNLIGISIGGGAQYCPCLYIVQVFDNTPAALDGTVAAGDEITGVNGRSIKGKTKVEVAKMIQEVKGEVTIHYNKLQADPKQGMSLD
Parameters: key: below the threshold = too weak to quantify, mostly under pKd 3.1 to 4
With QQGLLPHSSC [TYRO3, Q06418] the pKd was “below the threshold”.

The binders below were run against T6, RADIL, Q96JH8 (assay: holdup assay). Settings: plain residues with an end cap or a label only (N-terminal biotin on a linker: ado-ado).
T6 sequence (Q96JH8 971-1071, limits assumed, looked up): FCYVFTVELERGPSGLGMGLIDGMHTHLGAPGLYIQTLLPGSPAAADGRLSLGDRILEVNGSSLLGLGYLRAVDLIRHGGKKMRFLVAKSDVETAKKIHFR
Parameters: key: below the threshold = too weak to quantify, mostly under pKd 3.1 to 4
In the case of QQGLLPHSSC [TYRO3, Q06418], the pKd is reported as “below the threshold”.

What follows are binders tested against SCRIB_3, Q14160 (assay: holdup assay). Settings: plain residues with an end cap or a label only (N-terminal biotin on a linker: ado-ado).
Sequence of SCRIB_3, Q14160 (Q14160 999-1103): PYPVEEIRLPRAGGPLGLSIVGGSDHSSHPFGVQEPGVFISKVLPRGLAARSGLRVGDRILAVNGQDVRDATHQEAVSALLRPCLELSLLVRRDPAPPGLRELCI
Parameters: key: below the threshold = too weak to quantify, mostly under pKd 3.1 to 4
With QQGLLPHSSC [TYRO3, Q06418] the pKd was “below the threshold”.

The binders below were run against T7, SNTB1, Q13884 (assay: holdup assay). Settings: plain residues with an end cap or a label only (N-terminal biotin on a linker: ado-ado).
T7 sequence (Q13884 107-205, limits assumed, looked up): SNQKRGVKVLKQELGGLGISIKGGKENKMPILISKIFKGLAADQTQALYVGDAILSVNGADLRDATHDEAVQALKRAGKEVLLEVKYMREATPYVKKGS
Parameters: key: below the threshold = too weak to quantify, mostly under pKd 3.1 to 4
For QQGLLPHSSC [TYRO3, Q06418], the pKd was “below the threshold”.

The binders below were run against SNX27, Q96L92 (assay: holdup assay). Settings: plain residues with an end cap or a label only (N-terminal biotin on a linker: ado-ado).
Parameters: key: below the threshold = too weak to quantify, mostly under pKd 3.1 to 4
For QQGLLPHSSC [TYRO3, Q06418], the pKd was “below the threshold”.

Each binder was assayed against T8, TX1BP3, O14907 (assay: holdup assay). Settings: plain residues with an end cap or a label only (N-terminal biotin on a linker: ado-ado).
T8 sequence (O14907 10-122, limits assumed, looked up): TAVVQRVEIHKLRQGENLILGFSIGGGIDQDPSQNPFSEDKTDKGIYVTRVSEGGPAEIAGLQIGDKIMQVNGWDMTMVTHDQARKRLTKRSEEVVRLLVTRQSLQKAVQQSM
Parameters: key: below the threshold = too weak to quantify, mostly under pKd 3.1 to 4
QQGLLPHSSC [TYRO3, Q06418] was tested, and the pKd was “below the threshold”.

— PMC9482650, “Quantitative fragmentomics allow affinity mapping of interactomes” (Nature Communications, 2022)
